# B1: Full-length human acetylcholinesterase (dimeric, recombinant) (enzyme)
# chain: EGREDAELLVTVRGGRLRGIRLKTPGGPVSAFLGIPFAEPPMGPRRFLPPEPKQPWSGVVDATTFQSVCYQYVDTLYPGFEGTEMWNPNRELSEDCLYLNVWTPYPRPTSPTPVLVWIYGGGFYSGASSLDVYDGRFLVQAERTVLVSMNYRVGAFGFLALPGSREAPGNVGLLDQRLALQWVQENVAAFGGDPTSVTLFGESAGAASVGMHLLSPPSRGLFHRAVLQSGAPNGPWATVGMGEARRRATQLAHLVGCPPGGTGGNDTELVACLRTRPAQVLVNHEWHVLPQESVFRFSFVPVVDGDFLSDTPEALINAGDFHGLQVLVGVVKDEGSYFLVYGAPGFSKDNESLISRAEFLAGVRVGVPQVSDLAAEAVVLHYTDWLHPEDPARLREALSDVVGDHNVVCPVAQLAGRLAAQGARVYAYVFEHRASTLSWPLWMGVPHGYEIEFIFGIPLDPSRNYTAEEKIFAQRLMRYWANFARTGDPNEPRDPKAPQWPPYTAGAQQYVSLDLRPLEVRRGLRAQACAFWNRFLPKLLSATDTLDEAERQWKAEFHRWSSYMVHWKNQFDHYSKQDRCSDL
# notes: also called AChE; dimeric AChE
# Tests used:
# [1] = target: Amyloid fibrils of human PrP Δ23-99 (human, UniProt P04156 100-231); assay: static light scattering kinetics; conditions: both partners purified
# [2] = target: Amyloid fibrils of human PrP Δ100-120 (human, UniProt P04156 23-231, ∆100-120); assay: static light scattering kinetics; conditions: both partners purified
binder,measurement,setting,value
B1,stoichiometry N,[1],0.5
same,stoichiometry N,[2],0.5

# — PMC4383067 (Acta Neuropathologica Communications, 2015)
